B1: 25bp blunt (dsDNA)
DNA 1: AAGCTTGCATGCCTGCAGGTCGACC
DNA 2: GGTCGACCTGCAGGCATGCAAGCTT
B2: 100bp blunt (dsDNA)
DNA 1: GCACAATCTTCTCGCGCAACGCGTCAGTGGGCTGATCATTAACTATCCGCTGGATGACCAGGATGCCATTGCTGTGGAAGCTGCCTGCACTAATGTTCCG
DNA 2: CGGAACATTAGTGCAGGCAGCTTCCACAGCAATGGCATCCTGGTCATCCAGCGGATAGTTAATGATCAGCCCACTGACGCGTTGCGCGAGAAGATTGTGC

What was measured:
DNA-PKcs = DNA-PKcs (Homo sapiens (HeLa cells), UniProt P78527 1-4128); experiment: HX-MS on bead-captured DNA
DNA-PKcs;Ku70;Ku80 = DNA-PKcs;Ku70;Ku80 (Homo sapiens (HeLa cells);Homo sapiens …, UniProt P78527;P12956;P13010 1-4128;2-609;2-732, ||); experiment: pull-down

DNA-PKcs, sequence (P78527 whole entry): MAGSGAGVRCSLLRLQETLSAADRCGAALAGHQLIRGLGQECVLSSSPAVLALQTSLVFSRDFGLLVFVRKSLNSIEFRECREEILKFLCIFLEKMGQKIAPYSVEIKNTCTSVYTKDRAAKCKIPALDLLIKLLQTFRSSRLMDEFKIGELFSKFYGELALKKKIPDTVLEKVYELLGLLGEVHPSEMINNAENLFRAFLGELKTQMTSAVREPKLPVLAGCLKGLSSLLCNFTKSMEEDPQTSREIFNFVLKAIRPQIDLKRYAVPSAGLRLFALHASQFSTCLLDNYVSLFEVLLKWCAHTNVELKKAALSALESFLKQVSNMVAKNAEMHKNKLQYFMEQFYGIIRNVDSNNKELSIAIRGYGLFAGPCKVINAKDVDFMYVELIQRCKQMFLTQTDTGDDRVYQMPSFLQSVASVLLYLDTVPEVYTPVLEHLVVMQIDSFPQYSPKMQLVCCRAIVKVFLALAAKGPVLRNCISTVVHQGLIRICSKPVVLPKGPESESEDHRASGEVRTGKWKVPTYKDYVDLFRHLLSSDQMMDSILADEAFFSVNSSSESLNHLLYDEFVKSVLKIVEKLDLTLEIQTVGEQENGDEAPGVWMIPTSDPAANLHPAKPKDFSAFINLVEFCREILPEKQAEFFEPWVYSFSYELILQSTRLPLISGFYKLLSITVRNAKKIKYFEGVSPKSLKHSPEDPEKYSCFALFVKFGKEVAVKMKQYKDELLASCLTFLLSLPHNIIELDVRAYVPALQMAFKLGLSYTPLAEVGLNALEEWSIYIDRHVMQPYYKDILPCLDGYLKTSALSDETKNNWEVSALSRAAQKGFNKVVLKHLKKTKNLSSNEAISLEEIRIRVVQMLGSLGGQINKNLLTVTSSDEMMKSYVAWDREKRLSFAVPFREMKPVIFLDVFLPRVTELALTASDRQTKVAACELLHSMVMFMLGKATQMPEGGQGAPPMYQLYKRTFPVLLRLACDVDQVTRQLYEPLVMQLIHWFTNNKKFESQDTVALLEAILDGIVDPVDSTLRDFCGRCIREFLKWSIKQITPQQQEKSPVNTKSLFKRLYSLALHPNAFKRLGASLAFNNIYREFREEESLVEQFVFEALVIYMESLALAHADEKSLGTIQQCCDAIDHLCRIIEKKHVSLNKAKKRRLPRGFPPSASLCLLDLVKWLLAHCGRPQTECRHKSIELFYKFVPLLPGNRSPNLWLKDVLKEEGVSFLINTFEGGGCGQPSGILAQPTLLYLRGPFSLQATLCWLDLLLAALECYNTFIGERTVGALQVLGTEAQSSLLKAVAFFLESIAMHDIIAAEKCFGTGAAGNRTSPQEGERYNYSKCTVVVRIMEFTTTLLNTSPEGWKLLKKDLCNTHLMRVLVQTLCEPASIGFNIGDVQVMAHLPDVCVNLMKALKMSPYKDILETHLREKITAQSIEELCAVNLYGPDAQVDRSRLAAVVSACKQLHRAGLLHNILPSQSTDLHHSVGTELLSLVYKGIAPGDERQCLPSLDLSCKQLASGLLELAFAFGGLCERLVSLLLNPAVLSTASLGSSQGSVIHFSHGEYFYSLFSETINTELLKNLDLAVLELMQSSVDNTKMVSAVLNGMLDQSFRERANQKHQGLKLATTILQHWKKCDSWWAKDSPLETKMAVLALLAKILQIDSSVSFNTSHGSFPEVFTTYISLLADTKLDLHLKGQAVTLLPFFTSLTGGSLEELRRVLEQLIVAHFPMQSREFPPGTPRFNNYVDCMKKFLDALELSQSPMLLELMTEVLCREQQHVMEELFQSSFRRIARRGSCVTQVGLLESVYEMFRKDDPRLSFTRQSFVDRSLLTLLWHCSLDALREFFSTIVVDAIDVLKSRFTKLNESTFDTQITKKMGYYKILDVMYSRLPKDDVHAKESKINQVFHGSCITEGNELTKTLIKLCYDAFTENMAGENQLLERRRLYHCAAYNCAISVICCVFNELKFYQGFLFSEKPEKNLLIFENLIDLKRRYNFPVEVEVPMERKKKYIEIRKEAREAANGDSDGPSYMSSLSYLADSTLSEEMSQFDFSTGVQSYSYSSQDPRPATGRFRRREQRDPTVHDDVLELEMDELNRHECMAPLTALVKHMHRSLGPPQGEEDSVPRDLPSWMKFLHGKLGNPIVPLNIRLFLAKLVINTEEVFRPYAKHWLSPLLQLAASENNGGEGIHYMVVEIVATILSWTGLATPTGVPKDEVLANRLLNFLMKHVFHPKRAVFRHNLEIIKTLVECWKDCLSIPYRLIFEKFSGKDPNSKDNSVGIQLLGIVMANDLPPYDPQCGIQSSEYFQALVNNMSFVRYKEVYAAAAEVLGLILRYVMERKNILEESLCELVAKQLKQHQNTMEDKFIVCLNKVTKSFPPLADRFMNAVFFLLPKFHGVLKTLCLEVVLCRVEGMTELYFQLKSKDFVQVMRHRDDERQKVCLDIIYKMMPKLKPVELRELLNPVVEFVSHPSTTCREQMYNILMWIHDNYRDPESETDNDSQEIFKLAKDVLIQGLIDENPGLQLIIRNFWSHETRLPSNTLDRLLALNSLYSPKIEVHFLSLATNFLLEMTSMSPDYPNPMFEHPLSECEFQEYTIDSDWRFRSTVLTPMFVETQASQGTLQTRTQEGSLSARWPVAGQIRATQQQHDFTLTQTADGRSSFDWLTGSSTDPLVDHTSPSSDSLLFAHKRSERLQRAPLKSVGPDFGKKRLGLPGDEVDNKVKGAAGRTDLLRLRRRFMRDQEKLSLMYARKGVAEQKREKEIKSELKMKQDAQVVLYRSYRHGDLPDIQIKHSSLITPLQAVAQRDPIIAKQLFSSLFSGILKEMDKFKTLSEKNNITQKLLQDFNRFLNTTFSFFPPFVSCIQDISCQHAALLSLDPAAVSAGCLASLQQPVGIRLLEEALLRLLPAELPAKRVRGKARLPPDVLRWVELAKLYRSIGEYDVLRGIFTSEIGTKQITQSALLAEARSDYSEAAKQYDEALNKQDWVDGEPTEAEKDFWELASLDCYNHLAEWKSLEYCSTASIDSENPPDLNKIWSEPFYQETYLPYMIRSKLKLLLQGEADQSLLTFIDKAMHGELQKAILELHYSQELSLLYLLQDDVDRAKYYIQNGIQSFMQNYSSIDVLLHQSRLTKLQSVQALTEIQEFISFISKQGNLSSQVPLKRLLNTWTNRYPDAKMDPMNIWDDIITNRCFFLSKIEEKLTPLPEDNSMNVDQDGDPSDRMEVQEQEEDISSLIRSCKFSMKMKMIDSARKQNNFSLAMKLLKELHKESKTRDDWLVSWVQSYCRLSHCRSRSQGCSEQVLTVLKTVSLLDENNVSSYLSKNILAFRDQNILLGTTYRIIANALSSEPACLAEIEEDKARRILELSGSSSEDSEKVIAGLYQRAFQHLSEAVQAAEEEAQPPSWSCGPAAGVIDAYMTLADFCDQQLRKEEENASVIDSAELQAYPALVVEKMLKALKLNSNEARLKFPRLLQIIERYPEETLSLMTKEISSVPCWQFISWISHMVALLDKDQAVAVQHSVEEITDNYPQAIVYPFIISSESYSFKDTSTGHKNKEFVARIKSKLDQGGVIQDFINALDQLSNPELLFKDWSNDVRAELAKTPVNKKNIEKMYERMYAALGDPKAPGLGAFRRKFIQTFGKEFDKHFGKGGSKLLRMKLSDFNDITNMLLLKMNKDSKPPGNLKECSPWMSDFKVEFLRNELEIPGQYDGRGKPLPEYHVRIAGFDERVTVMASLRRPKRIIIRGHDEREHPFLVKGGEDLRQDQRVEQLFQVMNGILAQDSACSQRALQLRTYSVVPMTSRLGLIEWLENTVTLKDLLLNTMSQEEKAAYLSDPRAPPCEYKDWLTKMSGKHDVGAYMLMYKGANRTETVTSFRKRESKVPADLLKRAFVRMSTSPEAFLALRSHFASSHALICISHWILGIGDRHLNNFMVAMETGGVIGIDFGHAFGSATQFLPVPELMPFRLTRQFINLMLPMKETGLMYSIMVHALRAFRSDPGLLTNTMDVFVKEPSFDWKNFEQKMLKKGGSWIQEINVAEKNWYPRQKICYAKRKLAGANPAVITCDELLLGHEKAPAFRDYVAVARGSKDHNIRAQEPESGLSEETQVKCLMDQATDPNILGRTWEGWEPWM

Binder | binding result (DNA-PKcs) | binding result (DNA-PKcs;Ku70;Ku80)
B1 | binds | –
B2 | – | binds
